Laboratory results from the supplement of paper PMC10065799, “High-throughput profiling of sequence recognition by tyrosine kinases and SH2 domains using bacterial peptide display” (eLife, 2023).

What was measured:
SHP2-C SH2 = assay: SH2 binding enrichment of the phosphorylated peptide, bacterial display (enrichment ratio); higher = better substrate or ligand; peptides without Tyr show the background
c-Src SH2 = assay: as above
Grb2 SH2 = Grb2 SH2 (UniProt P62993); assay: as above
Hck = Hck (UniProt P08631); assay: phosphorylation enrichment, bacterial display (enrichment ratio); higher = better substrate or ligand; peptides without Tyr show the background
c-Abl (mouse) = assay: as above
c-Src = assay: as above
Fer (mouse) = assay: as above
EPHB2 = EPHB2 (UniProt P29323); assay: as above
Fes = Fes (UniProt P07332); assay: as above
MERTK = MERTK (UniProt Q12866); assay: as above
FGFR3 = FGFR3 (UniProt P22607); assay: as above
FGFR1 = FGFR1 (UniProt P11362); assay: as above
EPHB1 = EPHB1 (UniProt P54762); assay: as above
Fyn = Fyn (UniProt P06241); assay: as above
AncSZ = assay: as above
Jak2 = Jak2 (UniProt O60674); assay: as above
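Wherever SH2 binding enrichment of the phosphorylated peptide, bacterial display is given: peptide library displayed on the E. coli surface as eCPX fusions, selected cells deep-sequenced, score is each peptide's frequency after selection divided by its frequency in the input.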
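Wherever phosphorylation enrichment, bacterial display is given: 11-residue human phosphosite peptides and single-mutation variants displayed on the E. coli surface, counted by deep sequencing, each peptide's frequency after selection divided by its frequency in the unselected input library; frequency after pTyr selection over input frequency; kinase dosed for 20-30% of maximal phosphorylation in three min.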

Chain of FGFR1 (P11362 whole entry, looked up): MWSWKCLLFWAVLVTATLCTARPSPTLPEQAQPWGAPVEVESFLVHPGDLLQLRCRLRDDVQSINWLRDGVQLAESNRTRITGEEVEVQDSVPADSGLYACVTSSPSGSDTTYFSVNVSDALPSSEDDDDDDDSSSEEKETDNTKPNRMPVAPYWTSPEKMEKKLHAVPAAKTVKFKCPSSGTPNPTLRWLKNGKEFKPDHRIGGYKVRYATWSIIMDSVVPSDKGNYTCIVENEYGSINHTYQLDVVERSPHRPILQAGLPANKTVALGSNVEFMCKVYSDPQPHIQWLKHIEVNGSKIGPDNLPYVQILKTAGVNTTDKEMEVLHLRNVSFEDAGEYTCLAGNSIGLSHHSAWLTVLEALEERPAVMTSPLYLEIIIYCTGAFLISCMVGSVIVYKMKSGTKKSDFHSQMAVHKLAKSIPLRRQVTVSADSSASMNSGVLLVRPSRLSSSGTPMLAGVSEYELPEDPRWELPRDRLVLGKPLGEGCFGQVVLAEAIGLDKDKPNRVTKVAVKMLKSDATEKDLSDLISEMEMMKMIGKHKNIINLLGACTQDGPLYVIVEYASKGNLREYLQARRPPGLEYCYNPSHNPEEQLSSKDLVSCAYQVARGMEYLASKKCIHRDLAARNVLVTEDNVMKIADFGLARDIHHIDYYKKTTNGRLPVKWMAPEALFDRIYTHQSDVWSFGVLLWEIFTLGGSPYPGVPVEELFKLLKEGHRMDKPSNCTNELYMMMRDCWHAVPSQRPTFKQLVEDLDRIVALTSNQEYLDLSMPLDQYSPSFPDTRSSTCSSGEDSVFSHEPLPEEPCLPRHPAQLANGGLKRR
Chain of Fyn (P06241 whole entry, looked up): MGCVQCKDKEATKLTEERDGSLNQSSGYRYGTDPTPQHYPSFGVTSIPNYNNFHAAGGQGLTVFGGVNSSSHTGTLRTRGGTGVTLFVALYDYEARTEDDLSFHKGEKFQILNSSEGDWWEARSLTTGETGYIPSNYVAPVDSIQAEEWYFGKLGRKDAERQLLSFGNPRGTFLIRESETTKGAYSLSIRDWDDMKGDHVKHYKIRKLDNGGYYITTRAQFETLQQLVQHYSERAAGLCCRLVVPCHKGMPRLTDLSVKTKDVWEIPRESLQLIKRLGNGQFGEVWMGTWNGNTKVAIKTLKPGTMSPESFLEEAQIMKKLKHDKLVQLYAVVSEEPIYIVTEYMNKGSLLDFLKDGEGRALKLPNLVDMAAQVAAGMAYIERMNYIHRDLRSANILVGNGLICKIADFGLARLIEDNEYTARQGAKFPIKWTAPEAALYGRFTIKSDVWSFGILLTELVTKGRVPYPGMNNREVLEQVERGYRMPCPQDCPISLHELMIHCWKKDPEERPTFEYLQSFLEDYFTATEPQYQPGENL
Chain of MERTK (Q12866 whole entry, looked up): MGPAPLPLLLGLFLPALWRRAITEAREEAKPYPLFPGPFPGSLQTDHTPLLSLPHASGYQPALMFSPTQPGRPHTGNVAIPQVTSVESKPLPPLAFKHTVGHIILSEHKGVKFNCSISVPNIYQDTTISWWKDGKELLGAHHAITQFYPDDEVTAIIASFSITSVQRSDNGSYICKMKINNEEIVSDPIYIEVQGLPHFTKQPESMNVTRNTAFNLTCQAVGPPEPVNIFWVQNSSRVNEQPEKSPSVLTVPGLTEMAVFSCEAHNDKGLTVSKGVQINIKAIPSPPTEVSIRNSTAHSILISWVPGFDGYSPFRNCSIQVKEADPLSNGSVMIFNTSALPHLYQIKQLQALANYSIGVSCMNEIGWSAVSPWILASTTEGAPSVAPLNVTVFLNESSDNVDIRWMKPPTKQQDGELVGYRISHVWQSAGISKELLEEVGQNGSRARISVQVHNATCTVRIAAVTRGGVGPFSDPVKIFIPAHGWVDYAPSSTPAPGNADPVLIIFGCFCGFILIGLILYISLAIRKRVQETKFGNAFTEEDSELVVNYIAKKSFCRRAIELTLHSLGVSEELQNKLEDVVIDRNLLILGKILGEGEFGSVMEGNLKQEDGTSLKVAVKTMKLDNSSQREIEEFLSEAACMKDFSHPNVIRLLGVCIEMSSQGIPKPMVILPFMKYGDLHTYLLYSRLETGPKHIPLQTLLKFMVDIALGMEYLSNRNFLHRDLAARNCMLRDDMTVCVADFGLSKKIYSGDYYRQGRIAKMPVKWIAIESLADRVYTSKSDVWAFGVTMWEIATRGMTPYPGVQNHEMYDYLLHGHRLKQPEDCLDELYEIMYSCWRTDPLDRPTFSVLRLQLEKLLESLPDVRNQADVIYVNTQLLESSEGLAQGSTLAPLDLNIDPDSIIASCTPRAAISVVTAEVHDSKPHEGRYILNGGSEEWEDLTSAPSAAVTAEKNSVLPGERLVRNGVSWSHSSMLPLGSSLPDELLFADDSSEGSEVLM
Chain of Grb2 SH2 (P62993 whole entry, looked up): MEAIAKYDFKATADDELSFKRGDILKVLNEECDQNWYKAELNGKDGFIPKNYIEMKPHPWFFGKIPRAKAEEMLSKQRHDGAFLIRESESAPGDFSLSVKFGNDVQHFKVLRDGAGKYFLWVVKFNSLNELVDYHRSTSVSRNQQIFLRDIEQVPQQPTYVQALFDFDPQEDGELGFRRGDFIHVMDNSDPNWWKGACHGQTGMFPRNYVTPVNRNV
Chain of EPHB1 (P54762 whole entry, looked up): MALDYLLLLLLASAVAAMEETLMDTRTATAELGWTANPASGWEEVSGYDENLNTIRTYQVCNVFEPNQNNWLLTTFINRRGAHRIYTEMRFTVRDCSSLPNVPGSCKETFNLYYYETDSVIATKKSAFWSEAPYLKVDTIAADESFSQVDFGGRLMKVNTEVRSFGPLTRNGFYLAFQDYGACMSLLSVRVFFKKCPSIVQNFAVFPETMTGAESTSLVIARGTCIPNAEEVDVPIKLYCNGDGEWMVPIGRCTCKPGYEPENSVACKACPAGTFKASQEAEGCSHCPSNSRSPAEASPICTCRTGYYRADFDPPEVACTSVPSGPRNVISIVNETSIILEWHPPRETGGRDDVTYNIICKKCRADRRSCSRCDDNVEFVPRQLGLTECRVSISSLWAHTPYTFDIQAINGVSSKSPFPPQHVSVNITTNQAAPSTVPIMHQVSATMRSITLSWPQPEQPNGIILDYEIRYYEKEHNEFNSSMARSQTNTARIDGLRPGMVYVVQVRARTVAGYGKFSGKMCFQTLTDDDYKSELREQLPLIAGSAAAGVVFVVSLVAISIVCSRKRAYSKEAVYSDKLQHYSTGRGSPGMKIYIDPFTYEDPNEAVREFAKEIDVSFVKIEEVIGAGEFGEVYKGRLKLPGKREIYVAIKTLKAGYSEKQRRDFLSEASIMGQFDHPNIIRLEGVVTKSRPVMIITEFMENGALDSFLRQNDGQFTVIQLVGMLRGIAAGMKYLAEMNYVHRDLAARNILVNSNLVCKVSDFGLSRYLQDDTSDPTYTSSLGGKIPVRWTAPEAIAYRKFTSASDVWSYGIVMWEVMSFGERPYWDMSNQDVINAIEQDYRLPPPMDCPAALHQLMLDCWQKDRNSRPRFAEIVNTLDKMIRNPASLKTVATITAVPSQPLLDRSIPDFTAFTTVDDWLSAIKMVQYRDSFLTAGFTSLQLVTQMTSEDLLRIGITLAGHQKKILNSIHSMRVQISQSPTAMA
Chain of Jak2 (O60674 whole entry, looked up, the tested form may be a part): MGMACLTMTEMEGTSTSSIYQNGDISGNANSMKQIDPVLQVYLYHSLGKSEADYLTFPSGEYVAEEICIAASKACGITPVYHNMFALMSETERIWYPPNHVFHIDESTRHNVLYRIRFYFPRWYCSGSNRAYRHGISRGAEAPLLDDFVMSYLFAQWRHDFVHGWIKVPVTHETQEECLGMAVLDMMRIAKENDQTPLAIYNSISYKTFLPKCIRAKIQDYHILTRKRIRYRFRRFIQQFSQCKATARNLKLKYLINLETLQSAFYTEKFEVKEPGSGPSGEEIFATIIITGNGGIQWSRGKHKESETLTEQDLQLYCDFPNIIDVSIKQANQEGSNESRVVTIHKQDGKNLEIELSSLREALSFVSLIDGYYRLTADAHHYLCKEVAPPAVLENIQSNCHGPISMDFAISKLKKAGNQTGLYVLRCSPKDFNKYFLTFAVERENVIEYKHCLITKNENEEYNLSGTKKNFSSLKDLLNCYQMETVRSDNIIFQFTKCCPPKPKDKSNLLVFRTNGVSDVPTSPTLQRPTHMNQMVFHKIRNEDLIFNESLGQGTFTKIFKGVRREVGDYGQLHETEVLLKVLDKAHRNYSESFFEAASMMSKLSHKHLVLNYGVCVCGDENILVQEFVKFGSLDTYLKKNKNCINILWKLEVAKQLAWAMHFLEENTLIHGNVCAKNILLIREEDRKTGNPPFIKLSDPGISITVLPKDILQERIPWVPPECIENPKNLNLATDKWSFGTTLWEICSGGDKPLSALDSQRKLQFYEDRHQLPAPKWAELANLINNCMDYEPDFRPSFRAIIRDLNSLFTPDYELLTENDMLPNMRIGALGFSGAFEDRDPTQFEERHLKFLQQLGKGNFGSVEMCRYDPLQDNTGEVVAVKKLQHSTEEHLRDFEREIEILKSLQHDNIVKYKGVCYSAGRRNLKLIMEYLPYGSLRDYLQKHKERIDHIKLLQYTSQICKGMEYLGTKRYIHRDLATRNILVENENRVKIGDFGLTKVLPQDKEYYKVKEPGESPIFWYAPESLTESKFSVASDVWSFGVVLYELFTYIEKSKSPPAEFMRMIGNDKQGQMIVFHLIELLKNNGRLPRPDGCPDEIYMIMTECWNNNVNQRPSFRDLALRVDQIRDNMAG

Sequence | SH2 binding enrichment (SHP2-C SH2) | SH2 binding enrichment (c-Src SH2) | SH2 binding enrichment (Grb2 SH2) | phosphorylation enrichment (Hck) | phosphorylation enrichment (c-Abl (mouse)) | phosphorylation enrichment (c-Src) | phosphorylation enrichment (Fer (mouse)) | phosphorylation enrichment (EPHB2) | phosphorylation enrichment (Fes) | phosphorylation enrichment (MERTK) | phosphorylation enrichment (FGFR3) | phosphorylation enrichment (FGFR1) | phosphorylation enrichment (EPHB1) | phosphorylation enrichment (Fyn) | phosphorylation enrichment (AncSZ) | phosphorylation enrichment (Jak2)
SVCPDYDLCSV [SQSTM1_Y148] | 1.07 | 1.13 | 1.29 | 0.678 | 0.98 | 0.87 | 1.89 | 0.959 | 1.3 | 0.524 | 0.901 | 0.661 | 0.788 | 0.689 | 1.65 | 1.3
SVQVEYMKTIL [GLYATL2_Y127_D126E] | 0.777 | 0.72 | 0.712 | 0.469 | 0.484 | 0.376 | 0.425 | 0.476 | 0.893 | 0.429 | 0.578 | 0.437 | 0.41 | 0.413 | 0.643 | 0.612
SVTCTHSPALN [TP53_Y126_Y126H] | 0.389 | 0.444 | 0.742 | 0.529 | 0.818 | 0.459 | 0.542 | 0.548 | 1.01 | 0.4 | 0.612 | 0.404 | 0.498 | 0.52 | 0.862 | 0.759
SVTCTYSPALS [TP53_Y126_N131S] | 0.44 | 0.468 | 0.844 | 0.553 | 1.42 | 0.719 | 0.508 | 0.645 | 1.63 | 0.42 | 0.697 | 0.396 | 0.673 | 0.424 | 2.15 | 1.42
SVTCTYSPDLN [TP53_Y126_A129D] | 0.856 | 0.471 | 0.89 | 0.583 | 0.915 | 0.563 | 0.629 | 0.71 | 1.71 | 0.437 | 0.985 | 0.533 | 0.757 | 0.502 | 1.5 | 1.31
SVTCTYSSALN [TP53_Y126_P128S] | 0.732 | 0.537 | 0.78 | 0.689 | 0.728 | 0.64 | 0.534 | 0.576 | 1 | 0.458 | 0.726 | 0.483 | 0.601 | 0.6 | 1 | 0.909
SVVVPHEPPEV [TP53_Y220_Y220H] | 0.902 | 0.581 | 0.956 | 0.46 | 0.703 | 0.396 | 0.538 | 0.46 | 0.949 | 0.41 | 0.696 | 0.53 | 0.51 | 0.466 | 0.763 | 0.755
SWVVPYEPPEV [TP53_Y220_V216W] | 0.639 | 1.33 | 1.05 | 0.542 | 0.851 | 0.411 | 0.577 | 0.631 | 1.23 | 0.39 | 0.861 | 0.599 | 0.553 | 0.463 | 1.44 | 0.957
SYVVRYNQPRV [GRIN2D_Y736_M733V] | 1.09 | 1.31 | 1.05 | 0.475 | 0.717 | 0.405 | 0.419 | 0.478 | 0.891 | 0.375 | 0.588 | 0.452 | 0.478 | 0.433 | 0.843 | 0.725
TARREYMHSPS [CPOX_Y429_W427R] | 0.647 | 0.647 | 0.859 | 0.471 | 0.507 | 0.432 | 0.396 | 0.449 | 0.656 | 0.43 | 0.355 | 0.349 | 0.345 | 0.63 | 0.489 | 0.468
TCFDKYTGSTY [FN1_Y101_N104S] | 0.691 | 0.51 | 0.997 | 0.652 | 0.579 | 0.5 | 0.418 | 0.556 | 0.737 | 0.399 | 0.534 | 0.556 | 0.442 | 0.469 | 0.843 | 0.747
TDKLFYIYTSG [SLC27A4_Y243] | 1.75 | 0.443 | 0.677 | 0.522 | 1.18 | 0.542 | 0.517 | 0.682 | 1.94 | 0.589 | 0.811 | 0.565 | 0.701 | 0.48 | 1.5 | 1.48
TEQDPYNNIVR [MMUT_Y364] | 0.649 | 1.28 | 0.857 | 0.555 | 0.582 | 0.581 | 0.45 | 0.499 | 0.978 | 0.451 | 0.601 | 0.466 | 0.5 | 0.545 | 1.01 | 0.881
TGDFGYRTPGF [TNS2_Y668_A670T_YF] | 0.709 | 0.529 | 0.765 | 0.401 | 0.706 | 0.413 | 0.399 | 0.419 | 0.632 | 0.429 | 0.517 | 0.438 | 0.48 | 0.457 | 0.523 | 0.526
TGDRPYVCPFD [YY1_Y383] | 0.712 | 1.6 | 0.911 | 0.464 | 0.706 | 0.456 | 0.431 | 0.46 | 0.932 | 0.481 | 0.635 | 0.59 | 0.474 | 0.509 | 1.04 | 0.653
TGEKPYECVQC [ZNF24_Y335] | 1.06 | 3.11 | 0.81 | 0.521 | 0.519 | 0.501 | 1.87 | 0.507 | 0.7 | 0.509 | 0.531 | 0.501 | 0.514 | 0.515 | 0.755 | 0.664
THEVRYISAGQ [SLCO4A1_Y77_V78I] | 0.65 | 0.495 | 0.726 | 0.416 | 0.838 | 0.418 | 0.379 | 0.396 | 0.705 | 0.408 | 0.53 | 0.361 | 0.426 | 0.391 | 0.683 | 0.669

Sequence | SH2 binding enrichment (SHP2-C SH2) | SH2 binding enrichment (c-Src SH2) | SH2 binding enrichment (Grb2 SH2) | phosphorylation enrichment (Hck) | phosphorylation enrichment (c-Abl (mouse)) | phosphorylation enrichment (c-Src) | phosphorylation enrichment (Fer (mouse)) | phosphorylation enrichment (EPHB2) | phosphorylation enrichment (Fes) | phosphorylation enrichment (MERTK) | phosphorylation enrichment (FGFR3) | phosphorylation enrichment (FGFR1) | phosphorylation enrichment (EPHB1) | phosphorylation enrichment (Fyn) | phosphorylation enrichment (AncSZ) | phosphorylation enrichment (Jak2)
THEVRYVSAGQ [SLCO4A1_Y77] | 0.927 | 0.495 | 0.771 | 0.374 | 0.485 | 0.366 | 0.47 | 0.368 | 0.773 | 0.368 | 0.45 | 0.416 | 0.393 | 0.398 | 0.733 | 0.632
TIMTDYNPNYC [ALK_Y1092] | 0.654 | 0.663 | 1.11 | 0.66 | 0.923 | 0.552 | 0.548 | 0.531 | 1.26 | 0.6 | 0.904 | 0.715 | 0.999 | 0.439 | 1.33 | 1.24
TLNVRHESVQA [CEACAM7_Y236_Y236H] | 0.714 | 0.579 | 0.978 | 0.366 | 0.415 | 0.466 | 0.374 | 0.44 | 0.59 | 0.348 | 0.39 | 0.451 | 0.38 | 0.378 | 0.564 | 0.831
TLSGIYQFIIA [FOXL2_Y81_YF] | 1.13 | 1.24 | 1.49 | 8.44 | 2.71 | 5.96 | 15 | 9.15 | 3.16 | 10.1 | 7.18 | 10.4 | 14.2 | 6.83 | 1.81 | 1.2
TNGFTYGSSHQ [MANEA_Y331] | 0.493 | 0.434 | 0.74 | 0.443 | 0.412 | 0.404 | 0.514 | 0.31 | 0.576 | 0.441 | 0.39 | 0.525 | 0.444 | 0.492 | 0.566 | 0.413
TNYSLYLRSLE [MTM1_Y71_R69S] | 12.1 | 0.669 | 1.01 | 0.601 | 0.574 | 0.42 | 0.555 | 0.671 | 1.15 | 0.602 | 0.659 | 0.456 | 0.722 | 0.423 | 0.952 | 1.29
TQNGVYSAANY [DDX5_Y535] | 0.536 | 0.838 | 0.842 | 8.68 | 1.04 | 6.11 | 1.87 | 1.85 | 0.699 | 4.8 | 0.514 | 0.454 | 1.26 | 7.45 | 0.69 | 0.5
TQPSPYAVFRF [RPGRIP1_Y823_YF] | 1.1 | 0.696 | 1 | 8.6 | 24.8 | 7.72 | 9.31 | 0.922 | 0.805 | 9.69 | 0.8 | 0.893 | 2.6 | 10.7 | 0.952 | 0.824
TRDVNYGWIIR [MT-CYB_Y75] | 1.28 | 0.55 | 1.22 | 0.422 | 0.595 | 0.423 | 0.443 | 0.91 | 0.999 | 0.756 | 0.654 | 0.344 | 0.542 | 0.475 | 0.997 | 0.949
TRDVNYGWTIR [MT-CYB_Y75_I78T] | 1.02 | 0.515 | 1.29 | 0.478 | 0.534 | 0.492 | 0.588 | 0.648 | 0.969 | 0.495 | 0.636 | 0.46 | 0.544 | 0.441 | 1.39 | 0.834
TRFDEYLEVTK [MAP1A_Y2217_H2214Y_YF] | 0.78 | 0.528 | 0.814 | 0.619 | 0.731 | 0.444 | 0.501 | 0.723 | 1.22 | 0.819 | 0.823 | 0.949 | 0.789 | 0.571 | 1.32 | 1.25
TRTEAYAVSSF | 0.608 | 1.65 | 0.88 | 0.359 | 0.476 | 0.353 | 0.328 | 0.378 | 0.816 | 0.406 | 0.396 | 0.373 | 0.442 | 0.399 | 0.58 | 0.587
TSESSYYKSLN [NGEF_Y288_A286S] | 0.64 | 0.65 | 0.892 | 0.496 | 0.499 | 0.518 | 0.482 | 0.668 | 0.817 | 0.564 | 0.651 | 0.64 | 0.55 | 0.469 | 0.76 | 0.771
TSSAIYMNLAS [GATAD2B_Y317] | 1.46 | 1.4 | 4.48 | 6.95 | 3.29 | 6.07 | 3.71 | 3.51 | 1.01 | 8.39 | 1.94 | 3 | 8.76 | 6.11 | 0.949 | 0.997
TSSGGYRRTPS [ABI1_Y333] | 0.56 | 0.66 | 0.826 | 0.409 | 0.486 | 0.419 | 0.473 | 0.532 | 0.499 | 0.467 | 0.428 | 0.386 | 0.355 | 0.433 | 0.499 | 0.473
TSSSSYFDEPV [ARFGAP3_Y356] | 0.827 | 0.569 | 0.762 | 0.5 | 0.841 | 0.47 | 0.506 | 0.576 | 1.01 | 0.421 | 0.749 | 0.486 | 0.549 | 0.478 | 1.1 | 0.98
